Results taken from PMC3701042, “Structural Studies of a Bacterial tRNA^HIS Guanylyltransferase (Thg1)-Like Protein, with Nucleotide in the Activation and Nucleotidyl Transfer Sites” (PLoS ONE, 2013).

Experiments:
[1] = biological target: Bacillus thuringiensis tRNA^His guanylyltransferase (Thg1)-like protein (TLP) (Bacillus thuringiensis); test: crystal structure; BtTLP co-crystallised with ~2 mM GTP; tetragonal crystals, space group P4_(1), 2.96 Å; four monomers per asymmetric unit
[2] = biological target: Bacillus thuringiensis tRNA^His guanylyltransferase (Thg1)-like protein (TLP) (Bacillus thuringiensis); test: crystal structure; BtTLP co-crystallised with ~1 mM ATP; orthorhombic crystals, space group C222_(1), 2.35 Å; four molecules per asymmetric unit (two dimers)

Question: With “Bacillus thuringiensis tRNA^His guanylyltransferase (Thg1)-like protein (TLP) (enzyme)” as the substance, how does the stoichiometry N [1] read?
Answer: 4

Question: And the stoichiometry N [2]?
Answer: 4
